Data on one molecule can be found in publication PMC5780489 (2018).

In assay [1] the target is T1, PABPC1 RRM1/2/3/4 (residues 1-370) (human, UniProt P11940 1-370). The experiment in a line: NMR; RRM1/2/3/4 bound to A24 RNA; T438 signal.
Assay [2] addresses T1, PABPC1 RRM1/2/3/4 (residues 1-370). The experiment in a line: NMR; RRM1/2/3/4 bound to A24 RNA; W437 signal.

T1 sequence (P11940 1-370): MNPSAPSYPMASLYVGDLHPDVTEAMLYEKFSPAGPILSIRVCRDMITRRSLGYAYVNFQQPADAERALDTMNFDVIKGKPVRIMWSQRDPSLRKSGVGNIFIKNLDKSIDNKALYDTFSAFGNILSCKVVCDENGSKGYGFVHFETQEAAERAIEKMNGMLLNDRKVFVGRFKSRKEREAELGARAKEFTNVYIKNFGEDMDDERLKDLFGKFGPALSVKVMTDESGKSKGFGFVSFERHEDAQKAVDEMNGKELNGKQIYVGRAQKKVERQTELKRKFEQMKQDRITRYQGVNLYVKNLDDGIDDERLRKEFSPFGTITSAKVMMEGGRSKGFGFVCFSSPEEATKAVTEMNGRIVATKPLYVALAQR

B1: PABPC1 linker fragment Lt2 (residues 421-470) (peptide)
chain: AYYPPSQIAQLRPSPRWTAQGARPHPFQNMPGAIRPAAPRPPFSTMRPAS
As to B1, the Kd worked out at 24 µM in assay [1] and 12 µM in assay [2].
